# Ends that are not written are not given here.
# T1: K280-ac protein fragment (human)
# T1 construct: also called mAC
# T1 peptide: VQIINK(Ac)KLDLSN
# B1: ADEL-Y01m antibody (antibody, V domains shown)
# VH: EVQLEESGPSLVKPSQTLSLTCSVTGDSITSGYWNWIRKFPGNKLEYMGYIRYSGRTYYNPSLKSRISITRDTSKNQFYLQLISVTTEDTATYYCASVYFTYWGQGTLVTVSS
# VL: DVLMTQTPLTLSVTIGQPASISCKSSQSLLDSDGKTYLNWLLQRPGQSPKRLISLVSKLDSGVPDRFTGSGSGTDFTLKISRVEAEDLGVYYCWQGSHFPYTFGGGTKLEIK
# notes: Mouse monoclonal antibody from a hybridoma; also called Y01m01; antibody produced from the #15E5 hybridoma cell line (clone #1)
# B2: ADEL-Y01h01_v01 antibody (antibody, V domains shown)
# VH: EVQLQESGPGLVKPSQTLSLTCTVSGDSITSGYWNWIRQPPGKGLEYIGYIRYSGRTYYNPSLKSRVTISRDTSKNQFSLKLSSVTAADTAVYYCASVYFTYWGQGTLVTVSS
# VL: DVVMTQSPLSLPVTLGQPASISCKSSQSLLDSDGKTYLNWFQQRPGQSPKRLISLVSKLDSGVPDRFSGSGSGTDFTLKISRVEAEDVGVYYCWQGSHFPYTFGQGTKLEIK
# notes: Humanized ADEL-Y01m; It was detected with anti-human IgG; also called ADEL-Y01h v01
# B3: ADEL-Y01h v08 antibody (antibody, V domains shown)
# VH: EVTLKESGPTLVKPTQTLTLTCTVSGDSITSGYWNWIRQPPGKALEYLAYIRYSGRTYYNPSLKSRLTITRDTSKNQVVLTMTNMDPVDTATYYCASVYFTYWGQGTLVTVSS
# VL: DVVMTQSPDSLAVSLGERATINCKSSQSLLDSDGKTYLNWYQQKPGQSPKRLISLVSKLDSGVPDRFSGSGSGTDFTLTISSLQAEDVAVYYCWQGSHFPYTFGQGTKLEIK
# notes: Humanized antibody; It was detected with anti-human IgG; also called Y01h01v08
# B4: ADEL-Y01h v09 antibody (antibody, V domains shown)
# VH: B3 VH
# VL: EVVLTQSPGTLSLSPGERATLSCKSSQSLLDSDGKTYLNWYQQKPGQSPKRLISLVSKLDSGIPDRFSGSGSGTDFTLTISRLEPEDFAVYYCWQGSHFPYTFGQGTKLEIK
# notes: Humanized antibody; It was detected with anti-human IgG; also called Y01h01v09
# B5: ADEL-Y01h v10 antibody (antibody, V domains shown)
# VH: EVQLVESGGGLVQPGRSLRLSCTVSGDSITSGYWNWFRQAPGKGLEYVGYIRYSGRTYYNPSLKSRFTISRDTSKNIAYLQMNSLKTEDTAVYYCASVYFTYWGQGTLVTVSS
# VL: B2 VL
# notes: Humanized antibody; It was detected with anti-human IgG; also called Y01h01v10
# B6: v11 (antibody, V domains shown)
# VH: B5 VH
# VL: B3 VL
# notes: also called Y01h01v11; ADEL-Y01h v11 antibody
# B7: ADEL-Y01h v07 antibody (antibody, V domains shown)
# VH: B3 VH
# VL: B2 VL
# notes: Humanized antibody; It was detected with anti-human IgG; also called Y01h01v07
# How the values were obtained:
# [1] = biological target: T2, Tau (Acetylation -); assay: western blot
# T2 construct: also called non-Ac tau protein; non-acetylated wild type tau protein
# T2 sequence (tau protein, as listed by the source): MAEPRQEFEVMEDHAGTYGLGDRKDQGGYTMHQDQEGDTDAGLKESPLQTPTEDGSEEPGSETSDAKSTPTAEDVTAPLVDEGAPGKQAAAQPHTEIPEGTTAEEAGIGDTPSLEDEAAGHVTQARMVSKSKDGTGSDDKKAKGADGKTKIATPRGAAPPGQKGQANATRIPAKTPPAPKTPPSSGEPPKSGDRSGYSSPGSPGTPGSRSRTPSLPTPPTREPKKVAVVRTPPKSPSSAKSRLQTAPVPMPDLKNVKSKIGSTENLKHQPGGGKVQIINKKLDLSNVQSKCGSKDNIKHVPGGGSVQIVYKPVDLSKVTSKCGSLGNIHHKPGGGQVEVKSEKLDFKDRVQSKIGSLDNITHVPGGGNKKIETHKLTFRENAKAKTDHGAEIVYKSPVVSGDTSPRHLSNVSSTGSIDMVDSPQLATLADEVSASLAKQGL
# Procedure: (§1) In order to identify specific binding of the ADEL-Y01m antibody prepared in Preparation Example 2 to acetylated tau protein, the wild-type tau protein and the tau protein (Tau K280A) in which the 280th amino acid lysine is replaced with alanine were acetylated in vitro. Here, acetylation of the wild-type Tau protein and the Tau K280A protein was performed in the same manner as in the preparation method of the acetylated K18 protein fragment in Preparation Example 1. Then, an antigen-antibody specific binding reaction of the ADEL-Y01m antibody was checked through western blotting.
# (§2) First, the concentrations of the wild-type Tau protein and the Tau K280A protein were measured through Bradford Assay. Each of the proteins was mixed with 4× sample buffer (60 mM Tris-HCl [pH 6.8], 2% w/v SDS, 25% v/v glycerol, 14.4 mM v/v β-mercaptoethanol, and bromophenol blue). Thereafter, each protein was electrophoresed on an SDS-PAGE gel. Then, the electrophoresed gel was separated and transferred onto a PVDF membrane (BioRad, California, USA). Treatment with a blocking buffer (0.1% v/v Tween-20 [PBST], 3% w/v BSA, or 5% v/v skim milk in PBS buffer) was performed and reaction was allowed to proceed for 1 hour. Then, treatment with an anti-acetyl-lysine antibody (anti-acetyl-lysine, Cell Signaling, 9441) or ADEL-Y01m antibody as a primary antibody was performed and reaction was allowed to proceed at 4° C. overnight. The next day, the PVDF membrane was washed three times with a washing buffer (0.1% v/v Tween-20 [PBST] in PBS buffer), and then treated with HRP-labeled anti-mouse IgG antibody (Bioxcell, BE0083). The PVDF membrane was treated with a chemiluminescent reagent (Thermo Fisher Scientific). Then, measurement and analysis were performed using x-ray film and ImageJ software (NIH, Bethesda, Md.).
# [2] = biological target: T3, Tau K280A protein (human, UniProt P10636 2-758); assay: western blot
# T3 construct: Tau protein with lysine 280 replaced by alanine, not acetylated
# T3 sequence (P10636 other isoform, or with tags, fused parts or gaps K280A K280A limits assumed): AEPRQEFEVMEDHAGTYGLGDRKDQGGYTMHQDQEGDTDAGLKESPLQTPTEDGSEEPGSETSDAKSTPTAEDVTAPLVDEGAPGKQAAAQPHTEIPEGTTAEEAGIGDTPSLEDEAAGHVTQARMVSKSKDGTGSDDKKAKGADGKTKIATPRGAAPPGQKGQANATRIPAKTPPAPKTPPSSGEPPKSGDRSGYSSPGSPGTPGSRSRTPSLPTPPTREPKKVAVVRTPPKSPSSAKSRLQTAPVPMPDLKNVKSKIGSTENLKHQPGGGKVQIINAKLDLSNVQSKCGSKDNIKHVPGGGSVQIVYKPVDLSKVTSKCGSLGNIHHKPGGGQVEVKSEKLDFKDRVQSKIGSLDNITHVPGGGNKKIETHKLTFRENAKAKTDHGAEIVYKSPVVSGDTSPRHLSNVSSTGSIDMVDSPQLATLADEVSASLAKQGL
# Procedure: as §1, §2
# [3] = biological target: T4, acetylated Tau K280A protein (human, UniProt P10636 2-758, acetylated in vitro with P300 enzyme and acetyl CoA; sites not stated); assay: western blot
# T4 construct: Tau K280A acetylated in the same manner as the acetylated K18 fragment; also called Tau K280A (acetylated)
# T4 sequence (P10636 other isoform, or with tags, fused parts or gaps K280A K280A limits assumed): as above
# Procedure: as §1, §2
# [4] = biological target: T1, K280-ac protein fragment; assay: BLI, Octet K2; antibody fixed on AR2G biosensor, K280-ac fragment in solution
# Procedure: (§3) An affinity between the K280-ac protein fragment prepared in Preparation Example 1 and the ADEL-Y01m antibody prepared in Preparation Example 2 was measured through the Octet® K2 System (Fortebio).
# (§4) The ADEL-Y01m antibody was fixed on AR2G biosensor according to the manufacturer's manual. The surface of the biosensor was hydrated with water for 10 minutes, and then activated using a mixture of 20 mM 1-ethyl-3-[3-dimethylaminopropyl] carbodiimide hydrochloride (EDC) and 10 mM N-hydroxysulfosuccinimide (s-NHS). The ADEL-Y01m antibody was fixed on the activated biosensor using 10 mM sodium acetate buffer (pH 5.0) and quenched with 1M ethanol amine (pH 8.0) for 5 minutes. The biosensor on which the ADEL-Y01m antibody is fixed was immersed in 1×PBS buffer (pH 7.4) for 60 seconds, to establish a baseline. Then, the biosensor was immersed for 60 seconds in wells containing different concentrations of the K280-ac protein fragment (antigen) or BSA-bound peptide. Thereafter, the biosensor was immersed again in 1×PBS buffer (pH 7.4) for 10 minutes so that dissociation occurs. The experimental data were evaluated by Octet Data Analysis (SW version: 9.0.0.10).
# [5] = biological target: T1, K280-ac protein fragment; assay: Octet K2 system, antibody fixed on AR2G biosensor, antigen in solution
# Procedure: as §3, §4
# [6] = biological target: T1, K280-ac protein fragment; assay: ELISA on K280-ac coated at 250 ng/well, HRP anti-human IgG
# Procedure: (§5) In addition, binding of the K280-ac protein fragment prepared in Preparation Example 1 with the ADEL-Y01h (v01 to v12) antibodies prepared in Preparation Example 2 was measured by ELISA.
# (§6) First, plates were treated with the K280-ac protein fragment at 250 ng/well and reaction was allowed to proceed at 4° C. overnight. The next day, washing with a washing buffer was performed three times, and then treatment with a primary antibody was performed with 8 concentrations (2 μg, 1 μg, 0.5 μg, 0.25 μg, 0.12 μg, 0.06 μg, 0.03 μg, 0.01 μg). As a secondary antibody, HRP-labeled anti-human IgG antibody was used.
# [7] = biological target: T2, Tau (Acetylation -); assay: plate assay as drawn: capture Ab 1ug/well, antigen titrated
# [8] = biological target: T1, K280-ac protein fragment; assay: ELISA, K280-ac coated at 250 ng/well
# Procedure: as §5, §6
Binder,binding result [1],binding result [2],binding result [3],Kd [4] [nM],koff [5] [s⁻¹],kon [5] [M⁻¹ s⁻¹],Absorbance at 450nm at 0.01ug/well [6],Absorbance at 450nm at 0.03ug/well [6],Absorbance at 450nm at 0.06ug/well [6],Absorbance at 450nm at 0.12ug/well [6],Absorbance at 450nm at 0.25ug/well [6],Absorbance at 450nm at 0.5ug/well [6],Absorbance at 450nm at 1ug/well [6],Absorbance at 450nm at 2ug/well [6],binding result [7],binding result [6],binding result [8]
B1,no binding,no binding,no binding,0.257,0.000157,447000,,,,,,,,,,,
B2,,,,,,,0.731,0.899,1.1,1.58,1.93,2.07,2.22,2.42,no binding (tested: 100.00 (unit not printed)),,
B3,,,,,,,0.015,0.041,0.0375,0.0745,0.0855,0.0965,0.179,0.294,,,
B4,,,,,,,0.251,0.542,0.75,1.22,1.32,1.45,1.61,1.69,,,
B5,,,,,,,0.568,0.997,1.23,1.65,1.64,1.78,1.9,1.87,,,
B6,,,,,,,0.0085,0.0225,0.027,0.0345,0.036,0.0395,0.0455,0.048,,no binding (tested: 2 ug/well),
B7,,,,,,,,,,,,,,,,,binds

# — patent US20220204601A1 (ADEL, published 2022)
